The supplement of paper PMC12338614
± gives the uncertainty stated by the source.

B1: library; numbered along this chain (parent)
chain: MEVVDPQQLGMFTEGELMSVGMDTFIHRIDSTEVIYQPRRKRAKLIGKYLMGDLLGEGSYGKVKEVLDSETLCRRAVKILKKKKLRRIPNGEANVKKEIQLLRRLRHKNVIQLVDVLYNEEKQKMYMVMEYCVCGMQEMLDSVPEKRFPVCQAHGYFCQLIDGLEYLHSQGIVHKDIKPGNLLLTTGGTLKISDLGVAEALHPFAADDTCRTSQGSPAFQPPEIANGLDTFSGFKVDIWSAGVTLYNITTGLYPFEGDNIYKLFENIGKGSYAIPGDCGPPLSDLLKGMLEYEPAKRFSIRQIRQHSWFRKKHPPAEAPVPIPPSPDTKDRWRSMTVVPYLEDLHGADEDEDLFDIEDDIIYTQDFTVPGQVPEEEASHNGQRRGLPKAVCMNGTEAAQLSTKSRAEGRAPNPARKACSASSKIRRLSACKQQ

Variants of: B1
Test: STK11 functional score (HeLa growth suppression), rescaled enrichment; synonymous median = 1, nonsense median = 0 (normalised score)
Details: with HeLa; variant type: missense
Procedure, shortened: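 The functional score takes the post/pre-selection log ratio, corrects it to wild type, rescales it to synonymous and nonsense medians, and merges it over codons and replicate transfections, with error from bootstrapping. Counts came from tiled gDNA amplicons sequenced on NextSeq (~2 million reads per tile). The libraries were POPCode codon-randomised, codon-optimised STK11 integrated by Bxb1 at an AAVS1 landing pad in HeLa, three regions with three transfections each.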

| Variant | STK11 functional score |
| --- | --- |
| D141A | 1.01 ± 0.15 |
| I161Y | 0.129 ± 0.091 |
| T328I | 1.29 ± 0.075 |
| Y292R | 1.22 ± 0.21 |
| S421D | 1.62 ± 0.17 |
| S421Y | 1.61 ± 0.12 |
| Q382A | 1.38 ± 0.47 |
| A398G | 1.1 ± 0.38 |
| T189V | 1.3 ± 0.28 |
| C151L | 0.508 ± 0.091 |
| C151P | 0.45 ± 0.22 |
| C418A | 1.62 ± 0.12 |
| P203R | 1.01 ± 0.65 |
| S19F | 0.945 ± 0.12 |
| T13I | 1.01 ± 0.37 |
| C278V | 0.943 ± 0.11 |
| C278S | 1.21 ± 0.18 |
| K81G | 1.04 ± 0.1 |
| G251D | 0.751 ± 0.47 |
| R86T | 1.69 ± 0.18 |
| D277F | 1.35 ± 0.39 |
| R409S | 1.02 ± 0.27 |
| G10C | 1.4 ± 0.19 |
| G10S | 1.17 ± 0.092 |

| Variant | STK11 functional score |
| --- | --- |
| R301V | 1.62 ± 0.17 |
| A429T | 0.896 ± 0.4 |
| A429Y | 1.49 ± 0.23 |
| P411L | 1.16 ± 0.27 |
| Y118Q | 1.52 ± 0.14 |
| G394W | 1.29 ± 0.24 |
| P38K | 1.6 ± 0.22 |
| P38H | 1.11 ± 0.58 |
| P324R | 1.17 ± 0.15 |
| K235P | 1.65 ± 0.36 |
| H345T | 1.57 ± 0.17 |
| L164N | 0.0402 ± 0.26 |
| P387F | 1.14 ± 0.64 |
| P387G | 1.58 ± 0.2 |
| P387E | 1.6 ± 0.17 |
| P387M | 1.44 ± 0.11 |
| P387S | 1.41 ± 0.23 |
| L55S | 0.693 ± 0.14 |
| L55R | 1.21 ± 0.11 |
| L55F | -0.181 ± 0.15 |
| S283Q | 1.51 ± 0.21 |
| M289P | -0.379 ± 0.11 |
| H168Y | 0.357 ± 0.26 |
| H168F | 0.851 ± 0.51 |

| Variant | STK11 functional score |
| --- | --- |
| Q305M | 1.51 ± 0.15 |
| L167K | 0.0279 ± 0.15 |
| L167Y | 0.387 ± 0.46 |
| I79E | 0.0444 ± 0.2 |
| M51V | 0.725 ± 0.34 |
| E138K | 1.59 ± 0.56 |
| S142F | 1.41 ± 0.43 |
| S142Q | 1.69 ± 0.26 |
| P314R | 1.26 ± 0.22 |
| Q159D | 1.12 ± 0.46 |
| E291P | 0.178 ± 0.095 |
| E291G | 0.922 ± 0.22 |
| V128L | 0.945 ± 0.1 |
| L286I | 1.36 ± 0.24 |
| L286G | -0.0797 ± 0.098 |
| Q302C | 1 ± 0.73 |
| V116W | 0.541 ± 0.079 |
| K388N | 1.53 ± 0.49 |
| V150Q | 0.265 ± 0.12 |
| T244C | 1.32 ± 0.29 |
| E33P | 1.4 ± 0.33 |
| E33T | 1.69 ± 0.25 |
| L195F | 1.46 ± 0.21 |
| Y131L | 1.36 ± 0.18 |

| Variant | STK11 functional score |
| --- | --- |
| R405V | 1.62 ± 0.28 |
| D176H | -0.154 ± 0.14 |
| D350L | 1.6 ± 0.16 |
| E351L | 1.43 ± 0.25 |
| S69P | 1.04 ± 0.15 |
| S69V | 0.644 ± 0.16 |
| R426F | 1.3 ± 0.43 |
| S232H | 1.3 ± 0.14 |
| N393D | 1.07 ± 0.26 |
| R104S | 0.76 ± 0.2 |
| R104T | 1.3 ± 0.34 |
| R104K | 1.31 ± 0.67 |
| Q37S | 1.34 ± 0.13 |
| S378R | 1.16 ± 0.39 |
| G270M | 0.994 ± 0.46 |
| G270T | 1.09 ± 0.15 |
| L85T | -0.0975 ± 0.19 |
| L85S | 1.29 ± 0.17 |
| S422V | 1.05 ± 0.16 |
| P179F | 0.0795 ± 0.09 |
| G288Y | 0.713 ± 0.46 |
| P144W | 1.61 ± 0.15 |
| L67P | 0.0421 ± 0.099 |
| A218P | 0.529 ± 0.093 |

| Variant | STK11 functional score |
| --- | --- |
| M18E | 1.56 ± 0.2 |
| M18Q | 1.28 ± 0.12 |
| F219G | 0.713 ± 0.29 |
| F219H | 1.18 ± 0.66 |
| A316M | 1 ± 0.69 |
| R333V | 1.15 ± 0.64 |
| V320S | 1.48 ± 0.14 |
| V320C | 0.788 ± 0.12 |
| I267A | 1 ± 0.34 |
| A273G | 0.649 ± 0.24 |
| K403G | 1.46 ± 0.23 |
| L290Y | -0.205 ± 0.067 |
| L80E | 1.41 ± 0.38 |
| N247F | 0.863 ± 0.091 |
| Y166F | 1.05 ± 0.27 |
| S404V | 1.53 ± 0.27 |
| K124W | 0.166 ± 0.11 |
| S419N | 1.54 ± 0.13 |
| H107V | 0.138 ± 0.077 |
| A377P | 1.4 ± 0.38 |
| F309G | -0.12 ± 0.08 |
| P315Q | 1.34 ± 0.075 |
| K311A | 1.61 ± 0.15 |
| S216Y | -0.11 ± 0.12 |

| Variant | STK11 functional score |
| --- | --- |
| K96N | 1.14 ± 0.35 |
| P323V | 1.01 ± 0.11 |
| I177Y | 0.215 ± 0.075 |
| I177L | 0.956 ± 0.15 |
| V66A | 1.4 ± 0.092 |
| V66P | 0.219 ± 0.12 |
| C73V | 1.55 ± 0.24 |
| Y272C | 1.13 ± 0.71 |
| A414R | 1.58 ± 0.31 |
| A414C | 1.59 ± 0.29 |
| I111S | 0.535 ± 0.15 |
| K178F | 0.35 ± 0.048 |
| K178P | -0.0986 ± 0.093 |
| G171L | 1.43 ± 0.39 |
| I356N | 1.45 ± 0.62 |
| D194I | -0.258 ± 0.083 |
| Y36K | 1.23 ± 0.15 |
| Y36W | -0.265 ± 0.082 |
| E374L | 1.2 ± 0.38 |
| N119T | 1.42 ± 0.32 |
| T209L | 1 ± 0.21 |
| P373F | 1.26 ± 0.47 |
| P373G | 1.53 ± 0.25 |
| I35V | 0.925 ± 0.11 |

| Variant | STK11 functional score |
| --- | --- |
| V173R | 0.37 ± 0.16 |
| V173W | 0.343 ± 0.097 |
| Q399S | 0.903 ± 0.3 |
| T250C | 1.22 ± 0.24 |
| E98H | 0.617 ± 0.08 |
| E98T | 0.259 ± 0.093 |
| E98K | 1.12 ± 0.67 |
| C158M | -0.0261 ± 0.52 |
| F148E | 0.147 ± 0.17 |
| R75W | 0.21 ± 0.14 |
| R75L | 0.841 ± 0.13 |
| L427W | 1.53 ± 0.17 |
| S334D | 1.45 ± 0.13 |
| S325I | 1.56 ± 0.26 |
| D343G | 1.41 ± 0.26 |
| A206L | 1.03 ± 0.21 |
| G52L | 1.37 ± 0.22 |
| M22V | 1.13 ± 0.69 |
| M22H | 1.67 ± 0.21 |
| I224P | 0.889 ± 0.11 |
| T363S | 1.34 ± 0.17 |
| P413K | 1.55 ± 0.14 |
| P413A | 1.5 ± 0.2 |
